94 variants from the supplement of paper PMC10567573 can be followed below.

To fix the notation:
B1: SLC19A2 (parent)
chain: FHHIPSTCQRVNGIKVQNGGIVTD
B2: C2orf65 (parent)
chain: QLDWDELETNQQHFHALCHSLLVS
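Note: lentivirally expressed fusions sorted by FACS into six bins by GFP to DsRed ratio, PSI derived from sequencing read proportions per bin multiplied by bin number.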

Variants of B1 are the subject of one series. As to the kind of experiment: protein stability index of a GFP-peptide fusion (GPS, HEK-293T) (PSI 1-6); higher = more stable. As to conditions: c terminus: a fixed tail appended.
Take CHHIPSTCQRVNGIKVQNGGIVTD [F1C]: the protein stability index turned out to be 3.84.

For IHHIPSTCQRVNGIKVQNGGIVTD [F1I], the protein stability index turned out to be 3.46.

As for WHHIPSTCQRVNGIKVQNGGIVTD [F1W], the protein stability index worked out at 1.85.

KHHIPSTCQRVNGIKVQNGGIVTD [F1K]: the protein stability index was found to be 2.78.

As for THHIPSTCQRVNGIKVQNGGIVTD [F1T], the protein stability index amounted to 3.66.

With PHHIPSTCQRVNGIKVQNGGIVTD [F1P], the protein stability index came out at 3.84.

In the case of HHHIPSTCQRVNGIKVQNGGIVTD [F1H], the protein stability index was determined as 3.53.

With RHHIPSTCQRVNGIKVQNGGIVTD [F1R], the protein stability index came out at 3.64.

Turning to VHHIPSTCQRVNGIKVQNGGIVTD [F1V], the protein stability index came out at 4.14.

YHHIPSTCQRVNGIKVQNGGIVTD [F1Y]: the protein stability index amounted to 2.5.

With LHHIPSTCQRVNGIKVQNGGIVTD [F1L], the protein stability index is 2.81.

On to AHHIPSTCQRVNGIKVQNGGIVTD [F1A], for which the protein stability index is 3.95.

For the variant GHHIPSTCQRVNGIKVQNGGIVTD [F1G], the protein stability index is 3.78.

DHHIPSTCQRVNGIKVQNGGIVTD [F1D]: the protein stability index is 4.42.

Regarding SHHIPSTCQRVNGIKVQNGGIVTD [F1S], the protein stability index is 3.48.

With QHHIPSTCQRVNGIKVQNGGIVTD [F1Q], the protein stability index came to 3.71.

Turning to MHHIPSTCQRVNGIKVQNGGIVTD [F1M], the protein stability index stood at 3.33.

For FHHIPSTAQRVNGIKVQNGGIVTD [C8A], the protein stability index worked out at 2.36.

Turning to FHHIPWTCQRVNGIKVQNGGIVTD [S6W], the protein stability index is 3.58.

Take FHHIPNTCQRVNGIKVQNGGIVTD [S6N]: the protein stability index was 1.6.

Regarding FHHIPDTCQRVNGIKVQNGGIVTD [S6D], the protein stability index came to 2.28.

Take FHHIPHTCQRVNGIKVQNGGIVTD [S6H]: the protein stability index came out at 2.02.

For FHHIPFTCQRVNGIKVQNGGIVTD [S6F], the protein stability index came to 2.69.

Consider FHHIPVTCQRVNGIKVQNGGIVTD [S6V], for which the protein stability index was determined as 2.07.

As to FHHIPLTCQRVNGIKVQNGGIVTD [S6L], the protein stability index stood at 2.36.

On to FHHIPATCQRVNGIKVQNGGIVTD [S6A], for which the protein stability index worked out at 2.17.

Turning to FHHIPRTCQRVNGIKVQNGGIVTD [S6R], the protein stability index was determined as 1.9.

Consider FHHIPMTCQRVNGIKVQNGGIVTD [S6M], for which the protein stability index is 1.92.

In the case of FHHIPKTCQRVNGIKVQNGGIVTD [S6K], the protein stability index was 1.86.

For the variant FHHIPITCQRVNGIKVQNGGIVTD [S6I], the protein stability index is 1.71.

In the case of FHHIPETCQRVNGIKVQNGGIVTD [S6E], the protein stability index came to 2.22.

For FHHIPYTCQRVNGIKVQNGGIVTD [S6Y], the protein stability index was 2.01.

On to FHHIPQTCQRVNGIKVQNGGIVTD [S6Q], for which the protein stability index stood at 2.32.

For the variant FHHIPCTCQRVNGIKVQNGGIVTD [S6C], the protein stability index amounted to 2.27.

For the variant FHHIPPTCQRVNGIKVQNGGIVTD [S6P], the protein stability index worked out at 1.82.

FHHIPGTCQRVNGIKVQNGGIVTD [S6G]: the protein stability index was 1.93.

FHHIPTTCQRVNGIKVQNGGIVTD [S6T]: the protein stability index is 1.6.

In another series the parent is B2. The description is as above. As to conditions: c terminus: a fixed tail appended.
As for QLDWDELETNQQHFHALCHSLIVS [L22I], the protein stability index was 2.95.

On to QLDWDELETNQQHFHALCHSLWVS [L22W], for which the protein stability index was found to be 1.64.

As to QLDWDELETNQQHFHALCHSLMVS [L22M], the protein stability index turned out to be 3.01.

Regarding QLDWDELETNQQHFHALCHSLNVS [L22N], the protein stability index was determined as 2.69.

On to QLDWDELETNQQHFHALCHSLSVS [L22S], for which the protein stability index came to 2.58.

In the case of QLDWDELETNQQHFHALCHSLHVS [L22H], the protein stability index was determined as 2.69.

On to QLDWDELETNQQHFHALCHSLTVS [L22T], for which the protein stability index is 3.08.

Regarding QLDWDELETNQQHFHALCHSLYVS [L22Y], the protein stability index came to 2.44.

QLDWDELETNQQHFHALCHSLCVS [L22C]: the protein stability index was 2.58.

Take QLDWDELETNQQHFHALCHSLDVS [L22D]: the protein stability index was determined as 3.77.

Consider QLDWDELETNQQHFHALCHSLRVS [L22R], for which the protein stability index came to 2.96.

As to QLDWDELETNQQHFHALCHSLEVS [L22E], the protein stability index stood at 3.38.

Turning to QLDWDELETNQQHFHALCHSLQVS [L22Q], the protein stability index was 2.81.

Regarding QLDWDELETNQQHFHALCHSLAVS [L22A], the protein stability index came out at 3.29.

On to QLDWDELETNQQHFHALCHSLKVS [L22K], for which the protein stability index came to 2.37.

As to QLDWDELETNQQHFHALCHSLVVS [L22V], the protein stability index stood at 2.34.

Turning to QLDWDELETNQQHFHALCHSLFVS [L22F], the protein stability index amounted to 2.21.

Regarding QLDWDELETNQQHFHALCHSLPVS [L22P], the protein stability index is 3.16.

As to QLDWDELETNQQHFHALCHSYLVS [L21Y], the protein stability index turned out to be 2.37.

Regarding QLDWDELETNQQHFHALCHSLLYS [V23Y], the protein stability index came out at 2.27.

With QLDWDELETNQQHFHALCHSLLGS [V23G], the protein stability index was 3.26.

Take QLDWDELETNQQHFHALCHSLLMS [V23M]: the protein stability index amounted to 1.99.

For the variant QLDWDELETNQQHFHALCHSLLLS [V23L], the protein stability index came to 1.92.

For the variant QLDWDELETNQQHFHALCHSLLTS [V23T], the protein stability index stood at 2.35.

As to QLDWDELETNQQHFHALCHSLLES [V23E], the protein stability index was 2.68.

Consider QLDWDELETNQQHFHALCHSLLFS [V23F], for which the protein stability index is 1.69.

On to QLDWDELETNQQHFHALCHSLLSS [V23S], for which the protein stability index worked out at 2.63.

In the case of QLDWDELETNQQHFHALCHSLLIS [V23I], the protein stability index was 1.96.

QLDWDELETNQQHFHALCHSLLHS [V23H]: the protein stability index came to 2.36.

On to QLDWDELETNQQHFHALCHSLLQS [V23Q], for which the protein stability index was 2.48.

For QLDWDELETNQQHFHALCHSLLKS [V23K], the protein stability index was found to be 2.45.

In the case of QLDWDELETNQQHFHALCHSLLPS [V23P], the protein stability index is 2.95.

Take QLDWDELETNQQHFHALCHSLLRS [V23R]: the protein stability index was 2.01.

On to QLDWDELETNQQHFHALCHSLLDS [V23D], for which the protein stability index is 3.38.

In the case of QLDWDELETNQQHFHALCHSLLNS [V23N], the protein stability index amounted to 2.75.

Consider QLDWDELETNQQHFHALCHSLLAS [V23A], for which the protein stability index worked out at 2.68.

As for QLDWDELETNQQHFHALCHSLLCS [V23C], the protein stability index is 2.09.

Take QLDWDELETNQQHFHALCHSLLWS [V23W]: the protein stability index is 1.57.

Consider QLDWDELETNQQHFHALCHSLLVL [S24L], for which the protein stability index was found to be 2.73.

On to QLDWDELETNQQHFHALCHSLLVA [S24A], for which the protein stability index was 2.11.

For QLDWDELETNQQHFHALCHSLLVD [S24D], the protein stability index was determined as 3.08.

Turning to QLDWDELETNQQHFHALCHSLLVT [S24T], the protein stability index was determined as 1.89.

In the case of QLDWDELETNQQHFHALCHSLLVC [S24C], the protein stability index is 2.18.

Take QLDWDELETNQQHFHALCHSLLVP [S24P]: the protein stability index was 2.5.

Consider QLDWDELETNQQHFHALCHSLLVI [S24I], for which the protein stability index came out at 2.99.

For QLDWDELETNQQHFHALCHSLLVF [S24F], the protein stability index is 1.7.

For the variant QLDWDELETNQQHFHALCHSLLVQ [S24Q], the protein stability index was determined as 2.04.

Turning to QLDWDELETNQQHFHALCHSLLVE [S24E], the protein stability index stood at 2.11.

QLDWDELETNQQHFHALCHSLLVG [S24G]: the protein stability index worked out at 1.78.

In the case of QLDWDELETNQQHFHALCHSLLVN [S24N], the protein stability index is 2.25.

Turning to QLDWDELETNQQHFHALCHSLLVV [S24V], the protein stability index is 1.56.

With QLDWDELETNQQHFHALCHSLLVY [S24Y], the protein stability index turned out to be 2.54.

Regarding QLDWDELETNQQHFHALCHSLLVR [S24R], the protein stability index stood at 2.1.

Regarding QLDWDELETNQQHFHALCHSLLVK [S24K], the protein stability index stood at 2.27.

On to QLDWDELETNQQHFHALCHSLLVW [S24W], for which the protein stability index turned out to be 1.38.

In the case of QLDWDELETNQQHFHALCHSLLVM [S24M], the protein stability index was 2.02.

On to QLDWDELETNQQHFHALCHSLLVH [S24H], for which the protein stability index was found to be 2.33.
